B1: Glucocorticoid receptor, residues 419 to 494; numbered along this chain, P04150 (parent)
chain: KLCLVCSDEASGCHYGVLTCGSCKVFFKRAVEGQHNYLCAGRNDCIIDKIRRKNCPACRYRKCLQAGMNLEARKTK

Variants of: B1
Assay: abundance fitness (aPCA) (normalised: wild type 0, dead -1); higher = more abundant; growth selection in yeast, the domain comes from the species named
Details: Homo sapiens

Abundance fitness, by site and new letter:
F26: H -0.513, L -0.655, K -0.929, Y -0.36, V -0.738, Q -0.858, E -0.891, T -1.06, P -0.872
G16: D -0.078, T -0.264, K -0.295, S -0.182, C -0.483, Q -0.225, H -0.291, R -0.318, A -0.216, V -0.738, L -0.558, E -0.251, M -0.369, P -0.302, W -0.83, N 0
V17: W -0.641, I 0.129, Y -0.451, M -0.379, S -0.172, F -0.355, R -0.141, G -0.176, Q -0.194, K -0.013, D -0.405, E -0.389, L -0.16, H -0.371, C 0.057, P -0.215
V25: F -0.005, I 0.021, C 0.043, G 0.008, S -0.017, T -0.019, N -0.081, R 0.085, A 0.045, H 0.06, D 0.017, Y -0.129, M -0.094, P -0.614, E 0.051, Q 0.015, W -0.039
G12: F -0.083, L -0.166, V -0.166, N -0.093, H -0.096, K -0.08, Q -0.034, P -0.318, Y -0.206, E -0.057, S -0.063, D -0.003, C -0.194, T -0.069, R -0.074, A -0.101, M -0.071, W -0.153
A10: S -0.079, Q -0.111, T -0.161, P 0.004, R -0.453, Y -0.272, W -0.625, V -0.305
V31: Y -0.034, L -0.036, R -0.007, M -0.042, C -0.016, W -0.07, K -0.078, E -0.052, A -0.031, S 0.037, D -0.219, P -0.567, I 0.037, G -0.036, F -0.007, Q -0.017, N -0.104
S11: Y -0.174, K -0.005, Q 0.047, H 0.008, D 0.021, W -0.236, A -0.043, V -0.005, N 0.018, G -0.076, L 0.033, C -0.102, E 0.054, P -0.096, F -0.127, M -0.015
G21: E 0.076, Q 0.13, Y -0.031, I -0.088, L -0.037, P -0.008, S -0.023, N -0.15, H -0.122, T -0.031, D -0.009, R -0.086, K 0.008, M -0.032, C -0.064
H14: D -0.016, L -0.125, S -0.076, F -0.088, A -0.077, G -0.187, R -0.137, N -0.086, I -0.184, Y -0.068, Q -0.077, T -0.161, C -0.128, V -0.367, P -0.24, E -0.102, K -0.096, M -0.163
K28: R -0.034, G -0.051, Q 0.014, E 0.007, F -0.086, Y 0.001, T 0.001, S -0.068, D -0.061, C -0.121, L -0.022, A -0.056, N -0.063, I -0.064, M -0.002, H -0.001, P -0.243
